Target: T1, biotinylated human 4-1BB (recombinant Fc fusion protein of the extracellular domain of human 4-1BB) (human, UniProt Q07011 24-186, biotinylated (site not stated))
T1 construct: Bought from BPS Bioscience; tie to the Fc fusion is by the Materials paragraph; also called h4-1BB; CD137; not shown: Fc part of the purchased fusion (BPS Bioscience)
Experiment: SPR (ProteOn), biotinylated human 4-1BB on NLC chip, PBST
Procedure: Briefly, biotinylated human 4-1 BB was diluted in PBST (PBS, pH 7.4 containing 0.005% Tween 20®) and coated on a NLC chip (BioRad) to a level of around 320 resonance units (RU) (600 RU for single trace SPR measurements). The interaction of ankyrin repeat protein and h4-1 BB was then measured by injecting 200 μl running buffer (PBS, pH 7.4 containing 0.005% Tween 20®) containing serial dilutions of ankyrin repeat proteins covering a concentration range between 50 nM and 0.5 nM for multi-trace SPR measurements or 50 nM for single trace measurements (on-rate measurement), followed by a running buffer flow for at least 30 minutes at a constant flow rate of 100 μl/min (off-rate measurement). The regeneration was performed using 30 μl of 10 mM Glycine pH 2 followed by 30 μl of 124 mM H₃PO₄. The signals (i.e. resonance unit (RU) values) of the interspots and a reference injection (i.e. injection of running buffer only) were subtracted from the RU traces obtained after injection of ankyrin repeat protein (double-referencing). Based on the SPR traces obtained from the on-rate and off-rate measurements, the on- and off-rate of the corresponding ankyrin repeat protein—4-1 BB interaction was determined.
Dissociation constants (KD) were calculated from the estimated on- and off-rates using standard procedures known to the person skilled in the art.

| Binder | Kd |
| --- | --- |
| DARPin® protein #1 (designed binder) MRGSHHHHHHGSDLGQKLLKAAQEGQDDEVRELLKAGADVNAKDLRGITPLHVAAWQGHLEIVEVLLKAGADVNAKDSKGETPLHLAAFRGHLEIVEVLLKAGADVNAQDQQGETPADLAALAGHVDIAEVLQKAA | 0.47 nM |
| DARPin® protein #2 (designed binder) MRGSHHHHHHGSDLGKKLLVAANVGQDDEVRILLAAGADVNAKDYHGYTPLHHAATYGHLEIVEVLLKAGADVNAKDQTGLTPLHLAAAKGHLEIVEVLLKAGADVNAQDHHGYTPADLAAFVGHEDIAVVLQKLN | 0.86 nM |
| DARPin® protein #3 (designed binder) MRGSHHHHHHGSDLGRKLLQAAQLGQDDEVRELLKAGADVNAKDSRGITPLHVAAWQGHLEIVEVLLKASADVNAKDHAGITPLHLAAFLGHLEIVEVLLKAGADVNAQDQEGRTPADLAALQGHEDIAKVLQKLN | 1.25 nM |
| DARPin® protein #4 (designed binder) MRGSHHHHHHGSDLGKKLLEAARAGQDDEVRELLKAGADVNAKDTYGETPLHLAAWKGHLEIVEVLLKAGADVNAKDSIGITPLHVAAHHGHLEIVEVLLKAGADVNAKDKWGRTPLHLAALLGHLEIAEVLLKAGADVNAQDKSGKTPADLAADAGHDDIAEVLQKLN | 2.25 nM |
| DARPin® protein #25 (designed binder) MRGSHHHHHHGSDLGKKLLEAARAGQDDEVRELLKAGADVNAKDEWGETPLHLAAWKGHLEIVEVLLKAGADVNAKDSIGITPLHVAAHHGHLEIVEVLLKAGADVNAKDKWGRTPLHLAALLGHLEIVEVLLKAGADVNAQDKSGKTPADLAADAGREDIAEVLQKLN | 1.56 nM |
| DARPin® protein #5 (designed binder) MRGSHHHHHHGSDLGKKLLEAARAGQDDEVRELLKAGADVNAKDQEHGSTPLHLAANYGHLEIVEVLLKAGADVNAKNWWGNTPLHLAAVYGHLEIVEVLLKAGADVNAKDNHGHTPLHLAAWYGHLEIVEVLLKAGADVNAQDKSGKTPADLAADAGHEDIAEVLQKAA | 0.35 nM |
| DARPin® protein #6 (designed binder) MRGSHHHHHHGSDLGKKLLVAANVGQDDEVRILLAAGADVNAKDYHGYTPLHHAATYGHLEIVEVLLKAGADVNAKDQTGLTPLHLAAAKGHLEIVEVLLKAGADVNAQDHHGYTPADLAAFVGHEDIAVVLQKLN | 2.58 nM |
| DARPin® protein #7 (designed binder) MRGSHHHHHHGSDLGSKLLNAARKGQDDEVRILLAAGADVNAKDYYGQTPLHLAAVFGHLEIVEVLLKAGADVNAKDVLGRTPLHVAAYAGHLEIAEVLLKAGADVNAQDFDGFTPADLAAYVGLEDIAEVLQKLN | 0.54 nM |
| DARPin® protein #8 (designed binder) MRGSHHHHHHGSDLGKKLLEAARAGQDDEVRELLKAGADVNAKDRFGSTPLHIAAREGHLEIVEVLLKAGADVNAKDSWGATPLHIAAWRGHLEIVEVLLKAGADVNAKDRWGRTPLHIAAWTGHLEIVEVLLKACADVNAQDKSGKTPADLAADVGLEDIAEVLQKLN | 0.02 nM |
| DARPin® protein #9 (designed binder) MRGSHHHHHHGSDLGEKLLHAAYYGQDDEVRILLAAGADVNAKDNIGVTPLHFAAYFGHLEIVEVLLKAGADVNAQDYYGKTPADLAAYHGHEDIAEVLQKLN | 0.19 nM |
| DARPin® protein #10 (designed binder) MRGSHHHHHHGSDLGDKLLHAAYYGQDDEVRILLAAGADVNAKDNIGVTPLHFAAYFGHLEIVEVLLKAGADVNAQDYYGKTPADLAAYHGHEDIAEVLQKLN | 0.25 nM |
| DARPin® protein #14 (designed binder) MRGSHHHHHHGSDLGQKLLYAAFYGQDDEVRILLAAGADVNAKDFFGTTPLHWAAHAGHLEIVEVLLKAGADVNAKDQWGTTPLHYAAYYGHLEIVEVLLKAGADVNAQDDKGFTPADLAAIVGHEDIAEVLQKLN | 0.51 nM |
| DARPin® protein #11 (designed binder) MRGSHHHHHHGSDLGWKLLSAAWQGQDDEVRILLAAGADVNAKDTFGTTPLHWAAHAGHLEIVEVLLKAGADVNAKDQWGTTPLHYAAYYGHLEIVEVLLKAGADVNAQDDKGFTPADLAAIVGHEDIAEVLQKLN | 0.38 nM |
| DARPin® protein #12 (designed binder) MRGSHHHHHHGSDLGQKLLHTAYDGQDDEVRILLAAGADVNAKDFFGTTPLHWAAHAGHLEIVEVLLKAGADVNAKDQWGTTPLHYAAYYGHLEIVEVLLKAGADVNAQDDKGFTPADLAAIVGHEDIAEVLQKLN | 0.74 nM |
| DARPin® protein #15 (designed binder) MRGSHHHHHHGSDLGQKLLYAAYYGQDDEVRILLAAGADVNAKDFFGTTPLHWAAHAGHLEIVEVLLKAGADVNAKDQWGTTPLHYAAYQGHLEIVEVLLKAGADVNAQDTTGATPADLAAQAGHEDIAEVLQKLN | 5 nM |
| DARPin® protein #13 (designed binder) MRGSHHHHHHGSDLGLKLLYAAAEGQDDEVRILLAAGADVNAKDTRGQTPLHYAAWFGHLEIVEVLLKAGADVNAKDWSGDTPLHVAAWRGHLEIVEVLLKAGADVNAQDNSGNTPADLAAWIGHEDIAEVLQKLN | 0.69 nM |
| DARPin® protein #16 (designed binder) MRGSHHHHHHGSDLGAKLLNAAFFGQDDEVRILLAAGADVNAKDDYGHTPLHWAAVTGHLEIVEVLLKAGADVNAKDWLGETPLHHAAYEGHLEIVEVLLKAGADVNAQDEQGETPADLAAYEGHEDIAEVLLKAGADVNAQDDKGFTPADLAAIVGHEDIAEVLQKLN | 1.6 nM |
| DARPin® protein #17 (designed binder) MRGSHHHHHHGSDLGEKLLYAAYYGQDDEVRILLAAGADVNAKDHVGLTPLHYAAAIGHLEIVEVLLKAGADVNAKDHYGYTPLHYAAYKGHLEIVEVLLKAGADVNAQDSAGHTPADLAAHHGHEDIAEVLQKLN | 0.5 nM |
| DARPin® protein #18 (designed binder) MRGSHHHHHHGSDLGYKLLYAAAYGQDDEVRILLAAGADVNAKDQYGETPLHHAASHGHLEIVEVLLKAGADVNAKDTLGDTPLHLAAVVGHLEIVEVLLKAGADVNAQDTEGKTPADLAAYTGHEDIAEVLQKLN | 1.47 nM |
| DARPin® protein #19 (designed binder) MRGSHHHHHHGSDLGKKLLEAARAGQDDEVRELLKAGADVNAKDTHGWTPLHVAALEGHLEIVEVLLKAGAYVNAKDEWGQTPLHVAAWRGHLEIVEVLLKAGADVNAKDRYGWTPLHIAAWLGHLEIAEVLLKAGADVNAQDKSGKTPADLAADAGQEDIVEVLQKLN | 1.6 nM |
| DARPin® protein #21 (designed binder) MRGSHHHHHHGSDLGEKLLTAAYYGQDDEVRILLAAGADVNAKDKQGLTPLHYAAAVGHLEIVEVLLKAGTDVNAKDFYGETPLHLAASRGHLEIVEVLLKAGADVNAQDKSGKTPADLAADAGHEDIAEVLQKAA | 0.16 nM |
| DARPin® protein #20 (designed binder) MRGSHHHHHHGSDLGEKLLHAAYYGQDDEVRILLAAGADVNAKDDQGLTPLHLAAAIGHLEIVEVLLKAGADVNAKDAYGETPLHLAARRGHLEIVEVLLKAGADVNAQDKSGKTPADLAADAGHEDIAEVLQKAA | 0.48 nM |
| DARPin® protein #24 (designed binder) MRGSHHHHHHGSDLGEKLLNAAYYGQDDEVRILLAAGADVNAKDVKGETPLHYAAAVGHLEIVEVLLKAGADVNAKDQYGATPLHLAAYKGHLEIVEVLLKAGADVNAQDKSGKTPADLAADAGHEDIAEVLQKAA | 0.29 nM |
| DARPin® protein #22 (designed binder) MRGSHHHHHHGSDLGEKLLWAAWEGQGDEVRILLAAGADVNAKDLTGRTPLHFAAHSGHLEIVEVLLKAGADVNAKDNAGRTPLHLAAELGHLEIVEVLLKAGADVNAQDKSGKTPADLAADAGHEDIAEVLQKAA | 0.13 nM |
| DARPin® protein #23 (designed binder) MRGSHHHHHHGSDLGEKLLWAAYLGQDDEVRILLAAGADVNAKDATGRTPLHFAAHSGHLEIVEVLLKAGADVNAKDNAGRTPLHLAAELGHLEIVEVLLKAGADVNAQDKSGKTPADLAADAGHEDIAEVLQKAA | 0.6 nM |
| DARPin® protein #26 (designed binder) MRGSHHHHHHGSDLGKKLLEAARAGQDDEVRELLKAGADVNAKDHAGQTPLHIAALRGHLEIVEVLLKAGADVNAKDKYGQTPLHLAAILGHLEIVEVLLKAGADVNAKDQEGDTPLHIAAWQGHLEIVEVLLKAGADVNAQDKSGKTPADLAADAGHEDITEVLQKLN | 0.83 nM |
| DARPin® protein #27 (designed binder) MRGSHHHHHHGSDLGKKLLEAARAGQDDEVRELLKAGADVNAKDHQGATPLHNAAWAGHLEIVEVLLKAGADVNAKDKAGYTPLHIAAITGHLEIVEVLLKAGADVNAKDQWGKTPLHLAAQVGHLEIVEVLLKAGADVNAQDKSGKTPADLAADAGHEDIAKVLQKLN | 3.96 nM |

From patent US20220298212A1 (Molecular Partners, published 2022)
